According to the supplement of paper PMC10065799, “High-throughput profiling of sequence recognition by tyrosine kinases and SH2 domains using bacterial peptide display” (eLife, 2023):

Legend:
[1] = test system: Fer (mouse); assay: phosphorylation enrichment, bacterial display (enrichment ratio); higher = better substrate or ligand; peptides without Tyr show the background
[2] = target: EPHB1 (UniProt P54762); assay: as above
[3] = target: FGFR1 (UniProt P11362); assay: as above
[4] = target: FGFR3 (UniProt P22607); assay: as above
[5] = target: Hck (UniProt P08631); assay: as above
[6] = target: Fyn (UniProt P06241); assay: as above
[7] = test system: AncSZ; assay: as above
[8] = test system: c-Abl (mouse); assay: as above
[9] = target: MERTK (UniProt Q12866); assay: as above
[10] = test system: c-Src; assay: as above
[11] = target: Jak2 (UniProt O60674); assay: as above
[12] = target: Fes (UniProt P07332); assay: as above
[13] = target: EPHB2 (UniProt P29323); assay: as above
[14] = target: c-Src SH2; assay: SH2 binding enrichment of the phosphorylated peptide, bacterial display (enrichment ratio); higher = better substrate or ligand; peptides without Tyr show the background
[15] = target: Grb2 SH2 (UniProt P62993); assay: as above
[16] = target: SHP2-C SH2; assay: as above
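Throughout, for SH2 binding enrichment of the phosphorylated peptide, bacterial display: peptide library displayed on the E. coli surface as eCPX fusions, selected cells deep-sequenced, score is each peptide's frequency after selection divided by its frequency in the input.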
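Throughout, for phosphorylation enrichment, bacterial display: 11-residue human phosphosite peptides and single-mutation variants displayed on the E. coli surface, counted by deep sequencing, each peptide's frequency after selection divided by its frequency in the unselected input library; frequency after pTyr selection over input frequency; kinase dosed for 20-30% of maximal phosphorylation in three min.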

Chain of FGFR3 (P22607 whole entry, looked up): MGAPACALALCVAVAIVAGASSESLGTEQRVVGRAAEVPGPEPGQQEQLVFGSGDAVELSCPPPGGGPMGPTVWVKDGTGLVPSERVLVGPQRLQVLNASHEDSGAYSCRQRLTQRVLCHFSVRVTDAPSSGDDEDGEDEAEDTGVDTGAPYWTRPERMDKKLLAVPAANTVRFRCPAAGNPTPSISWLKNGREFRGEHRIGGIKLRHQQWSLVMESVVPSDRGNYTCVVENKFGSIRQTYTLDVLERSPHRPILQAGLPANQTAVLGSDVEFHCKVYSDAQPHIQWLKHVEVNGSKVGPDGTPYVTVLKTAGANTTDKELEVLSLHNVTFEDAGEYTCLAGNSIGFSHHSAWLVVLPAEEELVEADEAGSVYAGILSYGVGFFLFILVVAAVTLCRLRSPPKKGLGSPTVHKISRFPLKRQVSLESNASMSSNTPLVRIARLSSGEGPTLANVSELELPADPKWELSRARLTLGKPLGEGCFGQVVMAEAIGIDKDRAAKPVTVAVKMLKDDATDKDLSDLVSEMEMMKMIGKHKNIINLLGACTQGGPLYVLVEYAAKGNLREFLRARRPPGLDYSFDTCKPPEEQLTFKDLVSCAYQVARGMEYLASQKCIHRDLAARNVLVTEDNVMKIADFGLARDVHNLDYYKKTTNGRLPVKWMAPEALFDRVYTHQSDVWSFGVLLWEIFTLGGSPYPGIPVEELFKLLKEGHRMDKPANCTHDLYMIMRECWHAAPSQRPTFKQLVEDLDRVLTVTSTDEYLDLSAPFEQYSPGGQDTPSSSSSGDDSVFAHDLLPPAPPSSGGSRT
Chain of Grb2 SH2 (P62993 whole entry, looked up): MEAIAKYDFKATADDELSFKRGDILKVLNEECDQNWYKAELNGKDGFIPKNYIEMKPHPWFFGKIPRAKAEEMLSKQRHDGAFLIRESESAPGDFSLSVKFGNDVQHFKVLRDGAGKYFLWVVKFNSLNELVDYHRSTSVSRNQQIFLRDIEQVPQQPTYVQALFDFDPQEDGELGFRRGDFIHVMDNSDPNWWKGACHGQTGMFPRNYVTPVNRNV
Chain of Jak2 (O60674 whole entry, looked up): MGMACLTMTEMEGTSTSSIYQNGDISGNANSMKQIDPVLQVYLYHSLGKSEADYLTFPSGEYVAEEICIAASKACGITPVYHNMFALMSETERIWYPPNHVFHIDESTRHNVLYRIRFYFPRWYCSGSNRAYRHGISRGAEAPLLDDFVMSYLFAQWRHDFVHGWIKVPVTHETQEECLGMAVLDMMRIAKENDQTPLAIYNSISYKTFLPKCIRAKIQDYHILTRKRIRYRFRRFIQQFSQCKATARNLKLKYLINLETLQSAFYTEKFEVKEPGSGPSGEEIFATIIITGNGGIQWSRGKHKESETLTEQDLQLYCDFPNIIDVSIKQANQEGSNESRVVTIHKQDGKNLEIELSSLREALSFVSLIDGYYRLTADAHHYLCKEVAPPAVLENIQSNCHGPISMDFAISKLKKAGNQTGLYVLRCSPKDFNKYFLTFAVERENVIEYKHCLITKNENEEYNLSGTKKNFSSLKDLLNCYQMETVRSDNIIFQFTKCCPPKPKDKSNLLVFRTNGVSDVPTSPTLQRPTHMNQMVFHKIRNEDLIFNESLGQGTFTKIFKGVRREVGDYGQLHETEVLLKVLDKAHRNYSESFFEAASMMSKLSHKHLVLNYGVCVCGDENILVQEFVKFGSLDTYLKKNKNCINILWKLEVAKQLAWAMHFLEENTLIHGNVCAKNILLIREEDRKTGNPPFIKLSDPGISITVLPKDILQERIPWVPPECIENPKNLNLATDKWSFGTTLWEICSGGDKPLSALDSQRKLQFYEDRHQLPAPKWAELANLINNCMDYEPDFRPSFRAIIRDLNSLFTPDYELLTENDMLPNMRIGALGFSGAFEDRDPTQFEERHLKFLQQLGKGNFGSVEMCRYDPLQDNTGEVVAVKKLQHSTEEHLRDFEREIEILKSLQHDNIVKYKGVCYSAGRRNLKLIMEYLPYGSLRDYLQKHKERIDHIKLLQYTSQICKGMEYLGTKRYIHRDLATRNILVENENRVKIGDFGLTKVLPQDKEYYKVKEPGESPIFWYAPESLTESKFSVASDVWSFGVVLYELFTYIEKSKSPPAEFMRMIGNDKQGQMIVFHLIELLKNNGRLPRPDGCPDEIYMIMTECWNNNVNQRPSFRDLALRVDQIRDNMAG
Chain of Fyn (P06241 whole entry, looked up): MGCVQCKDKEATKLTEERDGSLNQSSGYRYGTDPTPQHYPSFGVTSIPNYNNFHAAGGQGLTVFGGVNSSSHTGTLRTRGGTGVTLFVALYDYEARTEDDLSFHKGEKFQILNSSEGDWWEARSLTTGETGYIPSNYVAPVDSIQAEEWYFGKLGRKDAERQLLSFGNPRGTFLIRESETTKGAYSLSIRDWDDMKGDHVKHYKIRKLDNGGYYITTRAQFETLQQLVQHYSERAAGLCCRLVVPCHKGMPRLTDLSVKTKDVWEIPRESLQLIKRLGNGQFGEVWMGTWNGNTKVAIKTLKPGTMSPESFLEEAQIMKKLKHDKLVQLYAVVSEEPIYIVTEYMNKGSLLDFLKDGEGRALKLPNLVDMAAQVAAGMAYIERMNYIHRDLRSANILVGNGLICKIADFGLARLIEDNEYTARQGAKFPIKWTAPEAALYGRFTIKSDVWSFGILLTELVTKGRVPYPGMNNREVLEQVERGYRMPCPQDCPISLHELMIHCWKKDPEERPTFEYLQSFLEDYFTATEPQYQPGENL
Chain of Hck (P08631 whole entry, looked up): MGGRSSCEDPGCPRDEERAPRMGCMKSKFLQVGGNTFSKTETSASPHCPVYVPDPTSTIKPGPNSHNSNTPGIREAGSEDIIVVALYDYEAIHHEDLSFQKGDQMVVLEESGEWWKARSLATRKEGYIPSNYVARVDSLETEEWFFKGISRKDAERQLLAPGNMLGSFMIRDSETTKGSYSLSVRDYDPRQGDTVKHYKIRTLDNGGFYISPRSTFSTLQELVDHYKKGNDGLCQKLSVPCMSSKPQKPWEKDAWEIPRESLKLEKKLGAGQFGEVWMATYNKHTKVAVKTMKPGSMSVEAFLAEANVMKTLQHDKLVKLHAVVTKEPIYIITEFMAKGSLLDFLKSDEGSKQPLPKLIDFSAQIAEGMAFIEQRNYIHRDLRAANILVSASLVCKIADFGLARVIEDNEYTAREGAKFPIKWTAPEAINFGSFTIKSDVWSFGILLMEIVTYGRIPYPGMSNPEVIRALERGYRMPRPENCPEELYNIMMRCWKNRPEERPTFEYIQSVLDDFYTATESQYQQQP
Chain of MERTK (Q12866 whole entry, looked up): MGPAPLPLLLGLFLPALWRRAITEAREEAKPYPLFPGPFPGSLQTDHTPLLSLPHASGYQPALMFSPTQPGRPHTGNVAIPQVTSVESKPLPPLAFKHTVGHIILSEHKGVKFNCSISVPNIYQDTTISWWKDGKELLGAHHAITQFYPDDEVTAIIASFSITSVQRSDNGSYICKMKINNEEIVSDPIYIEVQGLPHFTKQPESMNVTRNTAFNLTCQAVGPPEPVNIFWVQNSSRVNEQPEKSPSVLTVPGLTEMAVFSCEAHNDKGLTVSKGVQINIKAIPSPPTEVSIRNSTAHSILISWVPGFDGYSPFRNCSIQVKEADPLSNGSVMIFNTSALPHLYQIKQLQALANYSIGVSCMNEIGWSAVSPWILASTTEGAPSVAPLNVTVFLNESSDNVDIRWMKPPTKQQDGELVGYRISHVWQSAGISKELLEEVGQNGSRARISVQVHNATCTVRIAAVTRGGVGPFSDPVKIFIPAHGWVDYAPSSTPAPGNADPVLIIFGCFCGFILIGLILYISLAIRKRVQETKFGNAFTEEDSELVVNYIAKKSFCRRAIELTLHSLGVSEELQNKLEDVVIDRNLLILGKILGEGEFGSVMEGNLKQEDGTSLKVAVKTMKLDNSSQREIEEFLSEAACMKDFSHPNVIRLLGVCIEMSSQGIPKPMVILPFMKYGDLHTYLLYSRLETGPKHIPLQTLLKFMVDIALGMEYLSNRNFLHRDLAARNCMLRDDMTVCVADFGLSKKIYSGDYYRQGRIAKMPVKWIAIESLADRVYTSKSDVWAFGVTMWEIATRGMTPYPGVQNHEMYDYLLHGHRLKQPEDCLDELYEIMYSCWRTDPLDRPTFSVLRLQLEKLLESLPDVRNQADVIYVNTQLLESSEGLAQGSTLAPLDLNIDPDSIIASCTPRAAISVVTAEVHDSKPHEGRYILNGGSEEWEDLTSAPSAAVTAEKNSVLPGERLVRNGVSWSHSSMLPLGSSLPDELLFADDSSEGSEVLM
Chain of Fes (P07332 whole entry, looked up): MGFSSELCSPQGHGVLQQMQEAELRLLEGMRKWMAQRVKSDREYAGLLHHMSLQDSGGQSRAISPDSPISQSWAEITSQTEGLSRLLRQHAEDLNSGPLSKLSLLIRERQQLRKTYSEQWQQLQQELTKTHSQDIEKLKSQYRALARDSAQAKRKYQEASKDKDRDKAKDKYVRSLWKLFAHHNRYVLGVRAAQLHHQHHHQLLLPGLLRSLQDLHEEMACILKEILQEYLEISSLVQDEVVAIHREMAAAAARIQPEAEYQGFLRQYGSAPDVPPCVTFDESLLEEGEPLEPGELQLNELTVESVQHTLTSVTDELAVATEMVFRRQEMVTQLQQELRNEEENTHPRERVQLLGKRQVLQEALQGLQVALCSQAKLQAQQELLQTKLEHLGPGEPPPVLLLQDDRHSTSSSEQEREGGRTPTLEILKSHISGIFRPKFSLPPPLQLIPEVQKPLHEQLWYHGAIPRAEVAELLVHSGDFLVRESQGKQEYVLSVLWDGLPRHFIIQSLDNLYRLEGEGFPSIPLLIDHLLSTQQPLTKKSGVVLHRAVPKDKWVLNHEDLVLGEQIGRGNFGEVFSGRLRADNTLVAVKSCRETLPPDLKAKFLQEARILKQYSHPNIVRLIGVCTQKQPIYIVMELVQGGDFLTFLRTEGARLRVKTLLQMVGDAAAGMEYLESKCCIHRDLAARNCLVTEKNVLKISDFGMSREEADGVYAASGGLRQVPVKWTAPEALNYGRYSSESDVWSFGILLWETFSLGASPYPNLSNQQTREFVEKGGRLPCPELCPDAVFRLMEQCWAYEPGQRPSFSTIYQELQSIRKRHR

Row | Sequence | phosphorylation enrichment [1] | phosphorylation enrichment [2] | phosphorylation enrichment [3] | phosphorylation enrichment [4] | phosphorylation enrichment [5] | phosphorylation enrichment [6] | phosphorylation enrichment [7] | phosphorylation enrichment [8] | phosphorylation enrichment [9] | phosphorylation enrichment [10] | phosphorylation enrichment [11] | phosphorylation enrichment [12] | phosphorylation enrichment [13] | SH2 binding enrichment [14] | SH2 binding enrichment [15] | SH2 binding enrichment [16]
1 | DHYNQYEQQKM [CHD7_Y75] | 0.451 | 0.444 | 0.438 | 0.524 | 0.434 | 0.639 | 0.844 | 0.445 | 0.359 | 0.478 | 0.782 | 0.728 | 0.402 | 0.472 | 0.56 | 0.824
2 | DIDKIYVRTGI [PIK3CA_Y355] | 0.525 | 0.697 | 0.518 | 0.772 | 0.529 | 0.458 | 0.975 | 0.713 | 0.33 | 0.528 | 0.878 | 0.934 | 0.593 | 0.539 | 0.864 | 0.757
3 | DKEKWYPLGTS [PIK3C2G_Y1438_N1442T] | 0.55 | 0.544 | 0.409 | 0.642 | 0.44 | 0.505 | 0.821 | 0.591 | 0.458 | 0.486 | 0.765 | 0.931 | 0.496 | 0.403 | 0.852 | 0.513
4 | DKITQYVEEVK [STX2_Y49] | 0.479 | 0.507 | 0.552 | 0.78 | 0.421 | 0.509 | 1.11 | 0.698 | 0.505 | 0.425 | 0.876 | 1.23 | 0.581 | 0.555 | 0.918 | 0.752
5 | DKTGEYPVPLI [ACADM_Y73] | 0.442 | 0.528 | 0.468 | 0.687 | 0.49 | 0.407 | 0.809 | 0.55 | 0.392 | 0.436 | 0.856 | 0.957 | 0.575 | 0.399 | 0.666 | 0.697
6 | DLAGRYYALKS [CKB_Y173] | 0.597 | 0.406 | 1.04 | 0.85 | 0.726 | 0.538 | 0.572 | 0.577 | 1.65 | 0.571 | 1.58 | 0.878 | 0.419 | 1.47 | 0.824 | 0.722
7 | DLAGRYYALRS [CKB_Y173_K177R] | 0.477 | 0.352 | 0.963 | 0.811 | 0.681 | 0.484 | 0.729 | 0.544 | 2.19 | 0.487 | 1.65 | 0.649 | 0.439 | 1.87 | 0.775 | 0.9
8 | DLDFTYIYPNI [PTEN_Y27_L25F] | 0.501 | 0.83 | 4.18 | 3.11 | 1.37 | 2.5 | 4.17 | 0.953 | 1.22 | 1.47 | 2.36 | 1.23 | 0.945 | 2.69 | 0.67 | 0.496
9 | DLDLTYIYPNI [PTEN_Y27] | 0.424 | 1.71 | 3.8 | 2.61 | 1.37 | 2.84 | 3.91 | 0.612 | 2.41 | 1.4 | 1.57 | 0.871 | 0.961 | 3.33 | 1.29 | 0.962
10 | DLDPNYVVSSR [CKM_Y125_L127V] | 0.494 | 0.561 | 0.539 | 0.69 | 0.573 | 0.45 | 1.17 | 0.713 | 0.453 | 0.46 | 0.843 | 0.943 | 0.546 | 0.488 | 0.8 | 0.787
11 | DLSEVYKPRRK [CCDC93_Y176] | 0.521 | 0.513 | 0.352 | 0.575 | 0.407 | 0.579 | 0.761 | 0.59 | 0.634 | 0.573 | 0.574 | 0.623 | 0.454 | 0.315 | 0.414 | 0.481
12 | DPADRYLIEQC [CDKL5_Y286_T288I] | 0.511 | 0.626 | 0.587 | 0.777 | 0.556 | 0.51 | 1.19 | 0.903 | 0.467 | 0.518 | 1.06 | 1.32 | 0.682 | 0.544 | 0.88 | 0.67
13 | DPFHVYIKNHV [KCNE3_Y95_R99H_YF] | 0.585 | 0.671 | 0.469 | 0.918 | 0.519 | 0.382 | 1.22 | 0.915 | 0.354 | 0.403 | 1.2 | 1.32 | 0.735 | 0.643 | 0.978 | 0.839
14 | DQGEQYKKELE [LMNA_Y259_V256G] | 0.642 | 0.801 | 0.464 | 0.682 | 0.535 | 0.488 | 1.39 | 1.15 | 0.467 | 0.522 | 1.31 | 1.39 | 0.676 | 0.517 | 0.844 | 0.716
15 | DRLASYLDKLR [KRT12_Y139_V143L] | 0.479 | 0.494 | 0.458 | 0.597 | 0.472 | 0.459 | 0.921 | 0.868 | 0.45 | 0.498 | 0.713 | 0.894 | 0.567 | 0.545 | 0.876 | 0.582
16 | DRQASYLDKVR [KRT16_Y131_L128Q] | 0.324 | 0.39 | 0.39 | 0.424 | 0.399 | 0.418 | 0.536 | 0.494 | 0.388 | 0.385 | 0.609 | 0.662 | 0.419 | 0.465 | 0.846 | 0.614
17 | DTDSSYCIPIA [GAB1_Y373_T377I] | 0.483 | 0.829 | 0.586 | 0.706 | 0.413 | 0.467 | 2.21 | 0.82 | 1.16 | 0.435 | 0.925 | 1.05 | 0.721 | 0.551 | 0.88 | 0.441

Row | Sequence | phosphorylation enrichment [1] | phosphorylation enrichment [2] | phosphorylation enrichment [3] | phosphorylation enrichment [4] | phosphorylation enrichment [5] | phosphorylation enrichment [6] | phosphorylation enrichment [7] | phosphorylation enrichment [8] | phosphorylation enrichment [9] | phosphorylation enrichment [10] | phosphorylation enrichment [11] | phosphorylation enrichment [12] | phosphorylation enrichment [13] | SH2 binding enrichment [14] | SH2 binding enrichment [15] | SH2 binding enrichment [16]
18 | DTFDPYLDIAL [USP36_Y268_V271I_YF] | 1.08 | 0.73 | 0.783 | 1 | 0.577 | 0.692 | 1.25 | 0.727 | 0.527 | 0.832 | 1.39 | 1.52 | 0.589 | 0.487 | 0.944 | 0.548
19 | DTKDDYNALSV [IL17RB_Y457] | 0.483 | 0.495 | 0.544 | 0.718 | 0.546 | 0.599 | 1.08 | 0.679 | 0.426 | 0.443 | 0.916 | 1.07 | 0.625 | 0.498 | 0.869 | 0.668
20 | DTMQTYNGNDE [TSPAN7_Y131_A127T] | 0.557 | 0.589 | 0.695 | 0.817 | 0.642 | 0.491 | 0.976 | 0.758 | 0.382 | 0.502 | 0.976 | 1.17 | 0.632 | 0.44 | 0.874 | 0.578
21 | EAAFVYAISSA [WNT4_Y113] | 0.649 | 0.623 | 0.586 | 0.749 | 1.38 | 1.9 | 1.34 | 2.7 | 0.566 | 2.79 | 1.36 | 1.3 | 0.59 | 0.568 | 0.684 | 0.745
22 | EDSEYYKAFEE [CASQ2_Y179] | 0.487 | 0.526 | 0.51 | 0.742 | 0.508 | 0.425 | 1.37 | 0.793 | 0.372 | 0.547 | 1.11 | 1.34 | 0.489 | 0.614 | 0.921 | 0.748
23 | EEKKKYFDTKI [CASP5_Y103_YF] | 0.457 | 0.429 | 0.447 | 0.519 | 0.559 | 0.374 | 0.928 | 0.657 | 0.332 | 0.402 | 0.665 | 0.954 | 0.445 | 0.462 | 0.821 | 0.698
24 | EEQKKYYNAMK [SCN5A_Y1494] | 0.377 | 0.451 | 0.509 | 0.535 | 0.392 | 0.458 | 0.67 | 0.525 | 0.355 | 0.384 | 0.674 | 0.771 | 0.492 | 0.639 | 1.25 | 0.603
25 | EEVPLYESATT [DCC_Y809_G805E] | 6.01 | 2.19 | 0.487 | 0.878 | 1.49 | 1.07 | 1.5 | 1.04 | 0.601 | 1.09 | 1.27 | 1.32 | 2.66 | 0.457 | 0.8 | 0.574
26 | EFGSGYPNDPK [RNASEH2A_Y210_D205E_YF] | 0.41 | 0.562 | 0.406 | 0.594 | 0.503 | 0.441 | 0.884 | 0.79 | 0.653 | 0.539 | 0.797 | 0.875 | 0.51 | 0.376 | 0.879 | 0.611
27 | EGELRYMHSRV [ABCD1_Y281_K276E] | 0.395 | 0.516 | 0.428 | 0.485 | 0.34 | 0.507 | 0.688 | 0.519 | 0.35 | 0.373 | 0.86 | 0.689 | 0.439 | 0.432 | 0.677 | 0.513
28 | EGLRRYLENGK [HLA-A_Y195_W191G] | 0.291 | 0.346 | 0.315 | 0.427 | 0.398 | 0.397 | 0.463 | 0.419 | 0.52 | 0.336 | 0.6 | 0.473 | 0.323 | 0.405 | 0.584 | 0.615
29 | EHFSFYGMKAV [SLC15A2_Y61_R57H_YF] | 0.48 | 0.498 | 0.441 | 0.615 | 0.846 | 0.473 | 0.868 | 0.624 | 0.417 | 0.579 | 0.901 | 1.04 | 0.601 | 0.41 | 0.795 | 0.629
30 | EILLSYPRTGY [TGM1_Y365_L366P] | 0.49 | 0.397 | 0.445 | 0.47 | 0.371 | 0.418 | 0.626 | 0.658 | 0.379 | 0.448 | 0.867 | 0.789 | 0.456 | 0.58 | 0.929 | 0.699
31 | EKKKYYDAKIE [CASP5_Y104_T106A] | 0.475 | 0.679 | 0.526 | 0.781 | 0.449 | 0.588 | 0.777 | 0.609 | 0.473 | 0.64 | 0.912 | 0.978 | 0.326 | 0.522 | 1.07 | 0.668
32 | EKMWTYMPSAE [GRIA4_Y695_R697P] | 0.396 | 0.504 | 0.448 | 0.623 | 0.509 | 0.377 | 0.768 | 0.538 | 0.363 | 0.329 | 0.652 | 0.841 | 0.474 | 0.524 | 0.92 | 0.444
33 | EKNANYKEGTF [CLRN1_Y171_I168N_YF] | 0.397 | 0.346 | 0.401 | 0.46 | 0.381 | 0.452 | 0.715 | 0.647 | 0.425 | 0.389 | 0.635 | 0.757 | 0.445 | 0.503 | 0.944 | 0.874
